# Measurements published in patent US20230048553A1 (AbbVie / Abbott, published 2023).
# Positions count from the first letter of the chain named.
# T1: mouse CCR8 (mouse, UniProt P56484 1-353, limits assumed)
# T1 sequence (looked up): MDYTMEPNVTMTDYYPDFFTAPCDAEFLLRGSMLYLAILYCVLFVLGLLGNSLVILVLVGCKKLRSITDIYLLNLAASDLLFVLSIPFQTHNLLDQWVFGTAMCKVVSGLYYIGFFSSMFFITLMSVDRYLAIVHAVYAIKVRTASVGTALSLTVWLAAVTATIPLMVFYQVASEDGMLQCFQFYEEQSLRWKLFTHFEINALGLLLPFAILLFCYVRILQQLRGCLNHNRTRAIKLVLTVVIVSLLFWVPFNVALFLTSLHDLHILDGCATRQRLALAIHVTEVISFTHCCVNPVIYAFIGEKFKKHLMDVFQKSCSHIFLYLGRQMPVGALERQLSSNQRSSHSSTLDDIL
# T2: rat CCR8 (rat, UniProt D4ADE0 1-353)
# T2 sequence: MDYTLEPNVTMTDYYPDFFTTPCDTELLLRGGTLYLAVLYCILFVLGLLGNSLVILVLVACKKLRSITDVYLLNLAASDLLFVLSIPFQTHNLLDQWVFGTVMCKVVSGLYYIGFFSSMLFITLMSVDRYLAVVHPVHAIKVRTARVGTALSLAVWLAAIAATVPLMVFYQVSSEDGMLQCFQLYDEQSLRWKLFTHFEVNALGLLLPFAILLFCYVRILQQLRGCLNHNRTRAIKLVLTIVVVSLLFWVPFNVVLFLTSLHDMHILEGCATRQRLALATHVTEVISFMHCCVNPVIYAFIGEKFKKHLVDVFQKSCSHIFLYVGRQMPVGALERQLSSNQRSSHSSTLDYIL
# T3: rabbit CCR8 (rabbit, UniProt G1T2B2 1-355)
# T3 sequence: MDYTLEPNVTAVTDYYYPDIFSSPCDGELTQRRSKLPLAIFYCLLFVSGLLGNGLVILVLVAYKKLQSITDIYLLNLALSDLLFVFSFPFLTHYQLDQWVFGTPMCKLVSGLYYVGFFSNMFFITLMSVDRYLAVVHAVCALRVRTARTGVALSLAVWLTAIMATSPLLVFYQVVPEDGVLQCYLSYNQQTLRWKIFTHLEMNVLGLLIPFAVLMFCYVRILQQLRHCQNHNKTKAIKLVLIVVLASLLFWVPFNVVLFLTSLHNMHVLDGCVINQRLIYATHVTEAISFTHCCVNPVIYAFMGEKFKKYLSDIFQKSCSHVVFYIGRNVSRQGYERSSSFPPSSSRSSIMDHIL
# B1: AC-264700 (antibody, V domains shown)
# VH: EVQLVESGGGLVQPGGSLKLSCAASGFIFSNAVMYWVRQASGKGLEWVARIKTKFNNYATYYADSVKGRFTISRDDSKNMVYLQMNSLKTEDTAVYYCTAGDRNKPFAYWGQGTLVTVSS
# VL: ETVVTQSPATLSLSPGERATLSCRASDSVITLLHWFQQKPGQAPRLLIHGASNLESRVPARFSGSGSGTDFTLTISSLEPEDFATYFCQQSWNDPYTFGQGTKLEIKR
# B2: AC-277357 (fucosylated) (antibody, human IgG1, kappa, V domains shown)
# VH: B1 VH with S65A
# VL: B1 VL with D27T
# notes: AC-264700 with LCDR1 D27→T. Human IgG1 kappa
# B3: AC-277371 (antibody, V domains shown)
# VH: B1 VH with S65A
# VL: B1 VL with D27G
# B4: AC-277483 (antibody, V domains shown)
# VH: B1 VH with S65A
# VL: B1 VL with S28A
# B5: ABBV-514 (antibody, human IgG1, kappa, V domains shown)
# VH: B1 VH with S65A
# VL: B1 VL with D27T
# modifications: afucosylated N-glycan at ASN-300 (EU: ASN-297)
# notes: Afucosylated humanized IgG1 kappa made in cells expressing Pseudomonas RMD
# Experiments:
# [1] = target: T4, human CCR8 (chemokine receptor 8) (human, UniProt P51685 1-355); experiment: cell-based or functional assay
# T4 sequence (P51685 whole entry): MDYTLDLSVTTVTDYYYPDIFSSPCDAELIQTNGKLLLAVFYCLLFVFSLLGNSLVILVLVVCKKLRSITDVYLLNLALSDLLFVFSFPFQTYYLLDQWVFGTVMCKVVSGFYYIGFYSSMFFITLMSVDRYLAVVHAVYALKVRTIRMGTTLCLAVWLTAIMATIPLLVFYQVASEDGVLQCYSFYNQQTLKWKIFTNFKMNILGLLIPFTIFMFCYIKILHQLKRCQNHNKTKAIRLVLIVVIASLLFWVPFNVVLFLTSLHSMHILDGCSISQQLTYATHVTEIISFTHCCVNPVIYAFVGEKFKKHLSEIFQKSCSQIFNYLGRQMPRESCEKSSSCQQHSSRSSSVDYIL
# cynomolgus CCR8 [2] = target: T5, cynomolgus CCR8 (cynomolgus monkey, UniProt G7NYJ2 1-355); experiment: cell-based or functional assay
# T5 sequence (G7NYJ2 entry or part of it): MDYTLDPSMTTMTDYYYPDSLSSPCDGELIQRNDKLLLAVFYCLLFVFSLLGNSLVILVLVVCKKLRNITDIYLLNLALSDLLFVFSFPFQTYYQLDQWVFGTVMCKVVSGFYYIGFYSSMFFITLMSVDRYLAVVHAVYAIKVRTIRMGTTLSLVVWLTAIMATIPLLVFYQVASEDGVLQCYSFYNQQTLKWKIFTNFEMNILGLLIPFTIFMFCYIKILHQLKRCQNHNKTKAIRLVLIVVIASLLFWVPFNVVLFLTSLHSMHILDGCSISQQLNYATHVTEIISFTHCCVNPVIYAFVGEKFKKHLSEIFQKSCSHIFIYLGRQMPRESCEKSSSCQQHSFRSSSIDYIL
# cynomolgus CCR8 [3] = target: T5, cynomolgus CCR8; experiment: flow cytometry on cyCCR8 Jurkat cells
# Method: (§1) The candidate molecules were assessed for binding capacity using flow cytometry through known methods against overexpressed huCCR8 or cyCCR8 on the surface of Jurkat cells. The exemplary antibodies were tested for their ability to self-interact, bind to huCCR8 and cyCCR8, capacity for ADCC using the reporter bioassay, and non-specific binding to HEK293 cells. […] The AC-SINS self-interaction scores for each candidate was <1. At 100 μg/mL, non-specific binding maximums ranged from 97 to 144 GMFI. At 10 μg/mL, non-specific binding maximums ranged from 94-111 GFMI. At 1 μg/mL, non-specific binding maximums ranged from 87-102 GMFI.
# [4] = target: T4, human CCR8 (chemokine receptor 8); experiment: flow cytometry on huCCR8 Jurkat cells
# Method: as §1
# mouse CCR8 = target: T1, mouse CCR8; experiment: not told
# rat CCR8 = target: T2, rat CCR8; experiment: not told
# rabbit CCR8 = target: T3, rabbit CCR8; experiment: not told
# [5] = target: T4, human CCR8 (chemokine receptor 8); experiment: cell-based or functional assay; remark: listed apart in the source
Binder,ADCC reporter huCCR8 EC50 [1] [nM],ADCC reporter huCCR8 Max Fold Induction [1] [fold],ADCC reporter cyCCR8 EC50 (cynomolgus CCR8 [2]) [nM],ADCC reporter cyCCR8 Max Fold Induction (cynomolgus CCR8 [2]) [fold],EC50 (cynomolgus CCR8 [3]) [nM],EC50 [4] [nM],binding result (mouse CCR8),binding result (rat CCR8),binding result (rabbit CCR8),EC50 of CCL1 blockade (CCR8 beta-arrestin reporter assay) [5] [µg/mL]
B1,0.12,12.8,0.79,12,5.27,2.33,–,–,–,–
B2,0.1,15.7,0.75,12.3,2.37,1.51,–,–,–,–
B3,0.05,12.7,0.57,11.7,4.83,1.87,–,–,–,–
B4,0.07,13.6,1.19,10,5.93,2.9,–,–,–,–
B5,–,–,–,–,–,–,no binding,no binding,no binding,23.1
